This test has as its target T1, His-SUMO-FREE1 (Arabidopsis thaliana, UniProt Q9ASS2 1-601).
T1 construct: FREE1 (FYVE1), Arabidopsis thaliana, locus AT1G20110; also called Sumo-tagged FREE1; not shown: His, N-terminal, kept; SUMO, N-terminal, kept
T1 sequence (looked up): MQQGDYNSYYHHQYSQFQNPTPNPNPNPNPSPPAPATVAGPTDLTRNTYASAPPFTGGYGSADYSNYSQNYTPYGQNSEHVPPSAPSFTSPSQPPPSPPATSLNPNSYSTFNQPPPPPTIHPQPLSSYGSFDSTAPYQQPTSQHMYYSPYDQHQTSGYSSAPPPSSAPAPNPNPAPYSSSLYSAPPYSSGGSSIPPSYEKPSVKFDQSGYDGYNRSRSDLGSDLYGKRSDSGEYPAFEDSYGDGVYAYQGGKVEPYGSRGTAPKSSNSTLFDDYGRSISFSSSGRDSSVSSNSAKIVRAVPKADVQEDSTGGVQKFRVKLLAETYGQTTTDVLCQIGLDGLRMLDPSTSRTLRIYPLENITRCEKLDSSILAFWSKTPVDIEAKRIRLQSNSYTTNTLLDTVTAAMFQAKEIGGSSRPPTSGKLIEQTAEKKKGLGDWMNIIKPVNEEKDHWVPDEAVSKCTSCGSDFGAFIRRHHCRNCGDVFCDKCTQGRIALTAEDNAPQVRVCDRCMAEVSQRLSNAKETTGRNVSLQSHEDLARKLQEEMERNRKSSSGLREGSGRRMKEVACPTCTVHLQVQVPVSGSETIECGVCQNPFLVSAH
Nature of the test: pull-down; competition: in vitro binding assay on amylose resin bound with MBP-Vps23A (or the Vps23A CC domain as bait) with a constant amount of one His-SUMO protein (30 pmol BRAF) and 10, 30, 100 or 300 pmol of the competing His-SUMO protein; immunoblot, quantified. As to conditions: both partners purified.

B1: MBP-Vps23A (natural protein, Arabidopsis thaliana, UniProt Q9LHG8 1-398, looked up)
chain: MVPPPSNPQQVQQFLSSALSQRGPSSVPYEESNKWLIRQHLLNLISSYPSLEPKTASFMHNDGRSVNLLQADGTIPMPFHGVTYNIPVIIWLLESYPRHPPCVYVNPTADMIIKRPHAHVTPSGLVSLPYLQNWVYPSSNLVDLVSDLSAAFARDPPLYSRRRPQPPPPSPPTVYDSSLSRPPSADQSLPRPFPPSPYGGGVSRVQVQHVHHQQQSDDAAEVFKRNAINKMVEMVHSDLVSMRRAREAEAEELLSLQAGLKRREDELNIGLKEMVEEKETLEQQLQIISMNTDILDSWVRENQGKTKNLVDLDVDNAFECGDTLSKQMLECTALDLAIEDAIYSLDKSFQDGVVPFDQYLRNVRLLSREQFFHRATGSKVRAAQMEVQVAAIAGRLHS
notes: Vps23A/ELC, Arabidopsis thaliana, locus AT3G12400; Vector: in-house pRHisMBP; it may also add a His tag; source: E. coli BL21(DE3) pLysS, purified (amylose resin); not shown: MBP, N-terminal, kept
For the molecule B1, the binding result is “binds”.
